Experimental data reported in patent US20040185566A1, “Polypeptides toxic to nematodes and methods of use” (priority 2003, published 2004).
“And” between values parts separate entries of the source, which are not always exact repeats. Identical values can stand only once.

How the values were obtained:
R. similis = test: Assay for lytic activity against R. similis (microtiter plates); type: in vivo
Procedure: The assays were performed in microtiter plates. Ten microliters of R. similissuspensions were placed in microtiter plate wells. Serially diluted SMP #1 (100U in 0.1 ml stock) was added to the wells. PBS was added to a series of wells containing R. similis as a control. The nematodes were stored at 20° C. and examined for lytic effects or death at 48 and 96 hours.

casein = test: Proteolytic activity of SMP #1 (casein digestion), pH optimum and activity with detergents/solvents; type: biochemical
Procedure: Proteolytic activity was determined by casein digestion (Kunitz 1947). Substrate consisting of 0.75 ml 1.0% (w/v) casein in 100 mM TRIS/HCL, 1 mM MgCl2 (pH 8) at 30° C. Protease samples (0.1 ml) were brought to 30° C., added to the substrate and incubated at 30° C. After 30 minutes, the reaction was quenched with 0.5ml 10% (w/v) trichloroacetic acid (TCA). After 15 minutes at 25° C., the quenched reaction mixture was centrifuged at 10 000 g for 10 minutes to pellet precipitated protein and the A280 of the supernatant was determined. One unit of proteolytic activity was defined as the amount of enzyme that produced an increase of absorbance at 280 nM of 0.1 under the conditions of the assay.
Several compounds were tested as to characterize the novel protein. Effect of protease inhibitors (30-120 μ/ml antipain dihydrochloride, 1-4 μ/ml aprotinin, 20-80 μg/ml bestatin, 25-50 μg/ml chymostatin, 5-20 μg/ml E-64, 10-60 mM EDTA, 1-74 μg/ml leupeptin, 500-2000 μg/ml Pefabloc SC, 1-4 μ/ml pepstatin, 165-660 μlg/ml phosphoramidon and 100-400 μg/ml PMSF), SDS (0.1%-1%), Tween-20 (0.1%-1%), Triton X-100 (0.1%-1%), ethanol (1%-5%), and 2-mercaptoethanol (0.1%-1%) were determined by addition to the standard reaction mixture. Residual proteolytic activity was determined after incubation at 25° C. for 30 minutes.

[1] = Native isoelectric focusing; type: physicochemical; conditions: polypeptide produced by S. marcescens NRRL B-23112
Procedure: The isoelectric point (pI) of purified SMP#1 was determined using a vertical mini-gel system (Roberston et al. 1987) and 1.5 mm polyacrylamide gels consisting of 5% (w/v) 30:1 acrylamide/bisacrylamide, 10% (v/v) glycerol and 2% (w/v) pH 4-8 ampholytes. Electrode solutions were cooled to 4° C. prior to electrophoresis. The anode solution was 20 mM acetic acid and the cathode solution was 25 mM NaOH. Samples and protein standards (Sigma) were mixed with an equal volume of 50% (v/v) glycerol and 4%(w/v) ampholytes in the pH range of 4-8. Samples were prepared for isoelectric focusing by concentrating and desalting in a centriprep concentrator (Amicon) with a molecular mass exclusion limit of 10 000 Da. Electrophoresis was at 25° C. and 200 volts for 1.5 hours. The gels were fixed with 10% (w/v) trichloroacetic acid for 10 minutes with gentle agitation. Ampholytes were removed by shaking the gel for 2 hours in 1% (w/v) trichloroacetic acid. After rinsing with Milli-Q-water, the gels were stained with 0.25% (w/v) Coomassie blue R-250 in 45% (v/v) methanol and 10% (v/v) acetic acid for 10 minutes. The gels were destained in 45% (v/v) methanol and 10% (v/v) acetic acid until the background was clear.

A. suum = test: Assay for lytic activity against live A. suum; conditions: for 12 hours Death / 12 hours Lysis / 24 hours Death / 24 hours Lysis: protein conc. 0.1 mg/ml

B1: SMP #1: serratia metalloprotease isolated from S. marcescens NRRL B-23112, amino acid sequence SEQ ID NO:2; selective nematolytic activity (protein, listed as Serratia marcescens)
chain: MQSTKKAIEITESSLAAATTGYDAVDDLLHYHERGNGIQINGKDSFSNEQAGLFITRENQTWNGYKVFGQPVKLTFSFPDYKFSSTNVAGDTGLSKFSAEQQQQAKLSLQSWADVANITFTEVAAGQKANITFGNYSQDRPGHYDYGTQAYAFLPNTIWQGQDLGGQTWYNVNQSNVKHPATEDYGRQTFTHEIGHALGLSHPGDYNAGEGNPTYNDVTYAEDTRQFSLMSYWSETNTGGDNGGHYAAAPLLDDIAAIQHLYGANLSTRTGDTVYGFNSNTGRDFLSTTSNSQKVIFAAWDAGGNDTFDFSGYTANQRINLNEKSFSDVGGLKGNVSIAAGVTIENAIGGSGNDVIVGNAANNVLKGGAGNDVLFGGGGADELWGGAGKDIFVFSAASDSAPGASDWIRDFQKGIDKIDLSFFNKEAQSSDFIHFVDHFSGTAGEALLSYNASSNVTDLSVNIGGHQAPDFLVKIVGQVDVATDFIVHSNGTPGAVSAGRDA
Dead (nematodes counted) (R. similis; 10 U/well, 10 wells, 20° C.): 298 and 300
% mortality (R. similis; 10 U/well, 10 wells, 20° C., significant difference (p < 0.05) between treatments): 99% and 100%
lysis / mortality of the nematode on contact (R. similis; R. similis): lyses the nematode
time until cuticle and body wall are lysed and internal viscera expelled (R. similis; R. similis): ≤ 30 h
proteolytic activity retained in the presence of additive (casein; 2-mercaptoethanol (0.5% v/v)): retains full activity
proteolytic activity retained in the presence of additive (casein; SDS (1% w/v)): retains full activity
proteolytic activity retained in the presence of additive (casein; Triton X-100 (1% w/v)): retains full activity
proteolytic activity retained in the presence of additive (casein; Tween-20 (1% w/v)): retains full activity
proteolytic activity retained in the presence of additive (casein; ethanol (5% v/v)): retains full activity
Optimum pH (casein; polypeptide produced by S. marcescens NRRL B-23112): 10
Isoelectric point [1]: 6.1
lysis / mortality of the nematode on contact (A. suum; A. suum): lyses the nematode
time until cuticle and body wall are lysed and internal viscera expelled (A. suum; A. suum): ≤ 30 h
12 hours Death (A. suum; 10 mM 2-mercaptoethanol): (+)
12 hours Lysis (A. suum; 10 mM 2-mercaptoethanol): (+++)
24 hours Death (A. suum; 10 mM 2-mercaptoethanol): (+)
24 hours Lysis (A. suum; 10 mM 2-mercaptoethanol): (+++)

B2: papain (protein, UniProt P00784 134-345, looked up)
Papain: IPEYVDWRQKGAVTPVKNQGSCGSCWAFSAVVTIEGIIKIRTGNLNEYSEQELLDCDRRSYGCNGGYPWSALQLVAQYGIHYRNTYPYEGVQRYCRSREKGPYAAKTDGVRQVQPYNEGALLYSIANQPVSVVLEAAGKDFQLYRGGIFVGPCGNKVDHAVAAVGYGPNYILIKNSWGTGWGENGYIRIKRGTGNSYGVCGLYTSSFYPVKN
12 hours Death (A. suum; 2-mercaptoethanol 0): (+)
12 hours Lysis (A. suum; 2-mercaptoethanol 0): (+++)
24 hours Death (A. suum; 2-mercaptoethanol 0): (+)
24 hours Lysis (A. suum; 2-mercaptoethanol 0): (+++)
